# From patent publication US9783615B2, “Combination treatment of cancer” (UNIVERSITÉ DE LIÈGE, priority 2012, dated 2017)
# Entries after “also recorded” stand apart in the source; their conditions may differ.
# T1: recombinant catalytic domain of MT4-MMP (MT4CAT) (Homo sapiens, UniProt Q9ULZ9)
# T1 construct: Enzymatic activity of the recombinant catalytic domain of MT4-MMP (MT4CAT) was monitored
# T1 sequence (Q9ULZ9 126-295 limits assumed): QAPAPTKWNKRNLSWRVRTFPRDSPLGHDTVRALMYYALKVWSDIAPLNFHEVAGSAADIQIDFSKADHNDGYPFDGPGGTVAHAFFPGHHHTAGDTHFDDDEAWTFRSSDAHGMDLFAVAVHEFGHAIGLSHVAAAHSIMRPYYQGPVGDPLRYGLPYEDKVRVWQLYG
# T2: active wild type recombinant MT4-MMP (Homo sapiens, UniProt Q9ULZ9)
# T2 construct: made in house
# T2 sequence (Q9ULZ9 126-565): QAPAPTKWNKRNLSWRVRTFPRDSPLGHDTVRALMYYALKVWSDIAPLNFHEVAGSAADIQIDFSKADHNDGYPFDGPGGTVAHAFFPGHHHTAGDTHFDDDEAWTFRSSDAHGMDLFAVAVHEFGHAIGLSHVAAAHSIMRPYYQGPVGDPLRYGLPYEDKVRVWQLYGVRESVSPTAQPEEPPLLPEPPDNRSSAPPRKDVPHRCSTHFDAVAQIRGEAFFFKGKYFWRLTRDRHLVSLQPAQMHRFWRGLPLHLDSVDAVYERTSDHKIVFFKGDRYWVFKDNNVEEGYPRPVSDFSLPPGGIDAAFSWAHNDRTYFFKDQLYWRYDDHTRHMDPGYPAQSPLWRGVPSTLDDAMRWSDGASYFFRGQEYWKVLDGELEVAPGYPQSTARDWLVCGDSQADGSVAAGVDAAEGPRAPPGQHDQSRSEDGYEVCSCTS
# T3: MT4-MMP inactivated by mutation in its catalytic site (E249A) (Homo sapiens, UniProt Q9ULZ9, E249A)
# T3 sequence (Q9ULZ9 126-565 E249A): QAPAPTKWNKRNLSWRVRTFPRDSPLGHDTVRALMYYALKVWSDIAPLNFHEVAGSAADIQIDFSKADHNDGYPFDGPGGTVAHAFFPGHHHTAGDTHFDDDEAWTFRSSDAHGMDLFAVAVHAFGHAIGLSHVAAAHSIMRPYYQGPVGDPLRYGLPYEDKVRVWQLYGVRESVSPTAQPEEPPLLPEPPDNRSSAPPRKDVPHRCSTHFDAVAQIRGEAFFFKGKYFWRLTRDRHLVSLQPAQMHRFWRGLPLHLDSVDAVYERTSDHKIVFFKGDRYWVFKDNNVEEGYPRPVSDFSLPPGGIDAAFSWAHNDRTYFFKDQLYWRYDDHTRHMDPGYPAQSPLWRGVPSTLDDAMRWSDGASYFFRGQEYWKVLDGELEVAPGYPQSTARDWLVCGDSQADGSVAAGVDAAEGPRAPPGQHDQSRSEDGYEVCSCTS
# T4: recombinant MT4-CAT protein (Homo sapiens, UniProt Q9ULZ9)
# T4 construct: Enzymatic activity of the recombinant catalytic domain of MT4-MMP (MT4CAT) was monitored
# T4 sequence (Q9ULZ9 126-295 limits assumed): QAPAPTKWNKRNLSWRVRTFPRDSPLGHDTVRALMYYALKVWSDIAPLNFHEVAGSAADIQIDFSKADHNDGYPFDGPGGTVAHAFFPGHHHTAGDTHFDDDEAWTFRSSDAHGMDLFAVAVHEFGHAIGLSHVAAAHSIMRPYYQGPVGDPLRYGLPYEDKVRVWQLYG
# T5: inactive mutated form of MT4-MMP (E249A) (Homo sapiens, UniProt Q9ULZ9, E249A)
# T5 sequence (Q9ULZ9 126-565 E249A): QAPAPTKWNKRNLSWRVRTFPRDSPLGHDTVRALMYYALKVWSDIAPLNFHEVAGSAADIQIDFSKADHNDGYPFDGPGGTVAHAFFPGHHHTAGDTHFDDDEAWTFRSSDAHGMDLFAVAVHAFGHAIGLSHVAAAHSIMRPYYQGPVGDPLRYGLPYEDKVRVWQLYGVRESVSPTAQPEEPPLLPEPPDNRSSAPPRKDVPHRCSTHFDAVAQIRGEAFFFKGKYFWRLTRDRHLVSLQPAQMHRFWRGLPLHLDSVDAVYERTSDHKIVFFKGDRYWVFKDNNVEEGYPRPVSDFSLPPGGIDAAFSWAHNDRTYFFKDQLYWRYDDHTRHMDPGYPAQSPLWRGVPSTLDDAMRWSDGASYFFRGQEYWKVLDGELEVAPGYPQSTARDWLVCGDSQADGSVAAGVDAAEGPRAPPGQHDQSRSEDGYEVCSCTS
# T6: recombinant wild-type MT4-MMP (Homo sapiens, UniProt Q9ULZ9)
# T6 construct: made in house
# T6 sequence (Q9ULZ9 126-565): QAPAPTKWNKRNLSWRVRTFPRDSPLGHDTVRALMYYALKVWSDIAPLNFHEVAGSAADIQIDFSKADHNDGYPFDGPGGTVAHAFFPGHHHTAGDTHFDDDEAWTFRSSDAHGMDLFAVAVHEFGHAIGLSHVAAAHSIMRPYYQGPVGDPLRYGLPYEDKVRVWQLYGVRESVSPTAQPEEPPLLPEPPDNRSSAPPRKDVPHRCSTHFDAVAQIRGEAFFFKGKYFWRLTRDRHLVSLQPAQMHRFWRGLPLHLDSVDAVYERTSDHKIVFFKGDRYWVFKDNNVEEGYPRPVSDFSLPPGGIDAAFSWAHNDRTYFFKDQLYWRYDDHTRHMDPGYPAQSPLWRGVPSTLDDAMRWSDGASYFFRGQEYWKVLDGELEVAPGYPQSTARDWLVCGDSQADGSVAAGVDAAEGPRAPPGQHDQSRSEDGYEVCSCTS
# Assays:
# [1] = system: MDA-MB231 cells expressing MT4-MMP; assay: In vitro 3D Matrigel proliferation assay with DNA quantification; assay type: cell-based, human; settings: 7 days; for effect on MT4-MMP-mediated mitogenic effect (cell proliferation, DNA content): 3D Matrigel matrix, signaling pathway inhibitors added to the culture medium
# Procedure: The medium was changed every three days.
# Inhibition of MT4-MMP-dependent mitogenic effect of cancer cells was performed in 3D culture matrix. […] The medium was changed every three days.
# [2] = system: MDA-MB 231 control (CTR) cells; settings: 3D Matrigel matrix, 7 days
# Procedure: Matrigel® mixed with an equal volume of culture medium was coated onto 24-well plates (300 μl/plate). Cells (104) suspended in 250 μl of medium were mixed with the same volume of cold Matrigel® and seeded on the previously coated Matrigel® layer. In some assays, growth factor-free Matrigel® was used (BD, Bioscience). For signaling pathway inhibition in the 3D culture model, cells were incubated in Matrigel® matrix and 24 h later several inhibitors were added to the culture medium at the indicated concentrations:
# SB203580, Genistein, U0126, Wortmannin, PP2, SP600125, AG538 (Sigma), PD0332991 (Axon Medchem, Groningen, The Nederlands), MDL-12, GF109203x, AG1478 (Calbiochem, Gibbstown, N.J.). The medium was changed every three days. After 7 days, cells were recovered from 3D cultures upon treatment with 500 μl of Dispase (BD, Bioscience) for 2 h at 37° C. After two washes in PBS, cell pellet was diluted in PBS (1 ml) and sonicated.
# [3] = target: T1, recombinant catalytic domain of MT4-MMP (MT4CAT); assay: Inhibition of MT4-MMP enzymatic activity: cleavage of quenched fluorogenic peptide substrate (TACE substrate M-2255); assay type: biochemical; settings: scFV clones at 14 nM; substrate 30 μM
# Procedure: Inhibition of enzymatic activity of MT4-MMP was quantified by measuring the cleavage of quenched fluorogenic peptide substrate by the recombinant catalytic domain of MT4-MMP (MT4-CAT) in the presence or absence of MT4-MMP blocking antibodies (scFV). MT4-CAT (4.5 μM) was pre-incubated with MT4-MMP blocking antibodies (14 nM) for 30 min at 4° C. in buffer containing (50 mM Tris-HCl (pH 7.4); 5 mM CaCl2; ZnCl2 1 μM; 0.005%, Brij, 2% DMSO) before incubation with 30 μM of the fluorogenic substrate (pro-tumor necrosis factor-α converting enzyme (TACE) fluorogenic peptide substrate; Mca-(endo-1a-Dap(Dnp))-TNF-α (−5 to +6) amide (human), M-2255, Bachem AG, Switzerland).
# Neutralizing capacity of antibodies. The enzymatic activity of the recombinant catalytic domain of MT4-MMP (MT4CAT) was monitored by the cleavage of quenched fluorogenic peptide substrate pro-tumor necrosis factor-α converting enzyme (TACE) (M-2255, BACHEM) and using Luminescence spectrometer (SPECTRA MAX; GIMINI). […] The cleavage of quenched fluorogenic peptide was monitored by measuring relative fluorescence units (RFU) during the incubation time (seconds) in the absence of inhibitor (MTCAT+No inhibitor) or in the presence of BB94 (20 μM) or of the scFV clones (14 nM). […]
# [4] = target: T7, MT3-MMP (MMP16) (Homo sapiens, UniProt P51512); assay: Antibody specificity by Western blot; assay type: binding
# T7 construct: but not to MT1-MMP, MT3-MMP and MMP 2 catalytic domains
# T7 sequence (P51512 120-291 limits assumed, species assumed): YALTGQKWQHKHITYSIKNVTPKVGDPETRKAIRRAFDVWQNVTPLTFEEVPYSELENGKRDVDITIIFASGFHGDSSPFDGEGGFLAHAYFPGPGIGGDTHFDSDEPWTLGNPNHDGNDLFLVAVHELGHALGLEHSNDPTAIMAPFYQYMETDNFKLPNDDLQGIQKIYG
# [5] = target: T2, active wild type recombinant MT4-MMP; assay: Antibody specificity by Western blot; assay type: binding; settings: scFV 1 μg/ml
# Procedure: (§1) In detail, antibody specificity was assessed by Western blot. Recombinant MT4-MMP (1 μg) was incubated with purified scFV clones (1 μg/ml) that contain a myc tag. Membranes were first incubated with a monoclonal mouse anti-myc antibody (clone 9E10, Sigma M5546) (1/1000) and then with HRP conjugated anti-mouse antibody (FIG. 14 A).
# [6] = target: T3, MT4-MMP inactivated by mutation in its catalytic site (E249A); assay: Antibody specificity by Western blot; assay type: binding; settings: scFV 1 μg/ml
# Procedure: as §1
# [7] = system: MMP2; assay: Antibody specificity by Western blot; assay type: binding
# [8] = target: T8, MT1-MMP (MMP14) (Homo sapiens, UniProt P50281); assay: Antibody specificity by Western blot; assay type: binding
# T8 construct: but not to MT1-MMP, MT3-MMP and MMP 2 catalytic domains
# [9] = target: T4, recombinant MT4-CAT protein; assay: Antibody affinity on immobilized protein in 96 well-plates (absorbance at 450 nm); assay type: binding; settings: 0-3 μg of MT4-CAT per well
# Procedure: For determining antibody affinity recombinant MT4-CAT protein and BSA (background) was immobilized on 96 well-plates [0-3 μg of MT4-CAT in 15 mM Na-bicarbonate (pH 9.6)/well] for 18 h, at +4° C. Non-specific blockage was carried out by incubation of 3% (w/v) BSA/PBS, 0.01% (v/v) Tween-20, for 1 h, at +4° C. The detection of the bound antibody was carried out with 1:2000 diluted mouse anti-myc antibody (clone 9E10, Sigma M5546) incubated for 1 h, at room temperature, followed by 15 min incubation with HRP-conjugated anti-mouse antibody. After adding TMB substrate, the absorbance was measured at 450 nm Multiskan FC (Thermo Scientific, Rockford, USA).
# [10] = target: T5, inactive mutated form of MT4-MMP (E249A); assay: Antibody specificity by ELISA; assay type: binding
# Description: (§2) The specificity of K4H7 antibody evaluated by ELISA. […] BSA (column 2) and the absence of protein (column 1: blank) were used as control.
# [11] = target: T6, recombinant wild-type MT4-MMP; assay: Antibody specificity by ELISA; assay type: binding; settings: 3 μg protein
# Description: as §2
molecule,measurement,setting,value
N#C/C(=C\c1ccc(O)c(O)c1)C(=O)c1ccc(O)c(O)c1 [AG538],"effect on MT4-MMP-mediated mitogenic effect (cell proliferation, DNA content)",[1],No change
COc1cc2ncnc(Nc3cccc(Cl)c3)c2cc1OC [AG1478],"effect on MT4-MMP-mediated mitogenic effect (cell proliferation, DNA content)",[1],significantly reduced
CC(=O)c1c(C)c2cnc(Nc3ccc(N4CCNCC4)cn3)nc2n(C2CCCC2)c1=O [PD0332991],"effect on MT4-MMP-mediated mitogenic effect (cell proliferation, DNA content)",[1],inhibited
"CC(C)(C)n1nc(-c2ccc(Cl)cc2)c2c(N)ncnc21 [PP2, 4-amino-5-(4-chlorophenyl)-7-(t-butyl)pyrazol[3,4-d]pyrimidine]","effect on MT4-MMP-mediated mitogenic effect (cell proliferation, DNA content)",[1],No change
N#CC(=C(/N)Sc1ccccc1N)/C(C#N)=C(\N)Sc1ccccc1N [U0126],effect on proliferative rate in control cells,[2],without affecting the proliferative rate
same,"effect on MT4-MMP-mediated mitogenic effect (cell proliferation, DNA content)",[1],markedly inverted the proliferative phenotype
C#Cc1cccc(Nc2ncnc3cc(OCCOC)c(OCCOC)cc23)c1 [erlotinib],inhibition of proliferation of cancer cells (DNA content),"[1]; single treatment 1 μM, 3D Matrigel",partially inhibited; also recorded: reduced cell proliferation
O=c1c(-c2ccc(O)cc2)coc2cc(O)cc(O)c12 [genistein],"effect on MT4-MMP-mediated mitogenic effect (cell proliferation, DNA content)",[1],strongly inhibited
"K4H7: human scFv antibody that specifically binds and neutralizes MT4-MMP; VH SEQ ID NO: 26, VL SEQ ID NO: 27, complete scFv SEQ ID NO: 28 (protein) scFv: QVQLVQSGGGLVKPGRSLRLSCTASGFTFGDYAMSWFRQAPGKGLEWVGFIRSKAYGGTTEYAASVKGRFTISRDDSKSIAYLQMNSLKTEDTAVYYCTRGSSGWFLNWFDPWGQGTLVTVSSLEGGGGSGGGGSGGGGSELETTLTQSPATLSLSPGERATLSCRASQSISSSYLAWYQHKPGQAPRLLIYGASRRATGIPDRFSGSGSGTDFSLTISRLEPEDFAVYYCLHYGSSKWTFGQGTKVEIKR",inhibition of MT4-MMP enzymatic activity (neutralizing capacity),[3],able to inhibit; also recorded: inhibited completely
same,recognition of MT3-MMP (MMP16),[4],do not recognize
same,recognition of wild type recombinant MT4-MMP,[5],recognized specifically
same,recognition of MT4-MMP E249A mutant,[6],recognized specifically
same,reduction of cell proliferation (DNA content),"[1]; single treatment 20 μg/ml, 3D Matrigel",reduced cell proliferation
same,recognition of MMP2,[7],do not recognize
same,recognition of MT1-MMP (MMP14),[8],do not recognize
same,"affinity / capacity to bind recombinant MT4-MMP, compared among the three scFV clones",[9],highest capacity to bind; also recorded: highest affinity
same,binding to inactive MT4-MMP (E249A),[10],binds specifically
same,binding to wild-type MT4-MMP,[11],binds specifically
